Residue numbers refer to the chain shown, from its start. Numbers in names are those of the source. Values belong to the molecule of their own block, whether it stands above or below them.
Legend:
[1] = target: 2F8-HG-L236V; test: non-covalent nano-ESI MS, 0.01-10 uM; self-dimerisation (FIG. 6)
[2] = target: 2F8-HG-Y275A; test: as above
[3] = target: purified EGFr (Sigma) (UniProt P00533); test: ELISA on coated purified EGFr (50 ng/well), without and with polyclonal human IgG (IVIG), both curves in the same bundle
[4] = target: EGFr in A431 cells (UniProt P00533)
[5] = target: 2F8-HG-F273A; test: non-covalent nano-ESI MS, 0.01-10 uM; self-dimerisation (FIG. 6)

Molecule: 2F8-HG-R277A (antibody)
- EC50 (read off the curve) [3]: 0.08 µg/mL
- IC50 (read off the curve) [4]: 3 nM

Molecule: 2F8-HG-R277K (antibody)
- EC50 (read off the curve) [3]: 0.08 µg/mL

B1: 2F8-HG-F273L (antibody, part only; not given: anti-EGFr VH and light chain, part only)
heavy, part: ASTKGPSVFPLAPCSRSTSESTAALGCLVKDYFPEPVTVSWNSGALTSGVHTFPAVLQSSGLYSLSSVVTVPSSSLGTKTYTCNVDHKPSNTKVDKRVAPEFLGGPSVFLFPPKPKDTLMISRTPEVTCVVVDVSQEDPEVQFNWYVDGVEVHNAKTKPREEQFNSTYRVVSVLTVLHQDWLNGKEYKCKVSNKGLPSSIEKTISKAKGQPREPQVYTLPPSQEEMTKNQVSLTCLVKGFYPSDIAVEWESNGQPENNYKTTPPVLDSDGSFLLYSRLTVDKSRWQEGNVFSCSVMHEALHNHYTQKSLSLSLGK
- EC50 (read off the curve) [3]: 0.08 µg/mL

B2: 2F8-HG-F273A (antibody, part only; not given: anti-EGFr VH and light chain, part only)
heavy, part: B1 heavy, part with L273A
- EC50 (read off the curve) [3]: 0.08 µg/mL
- percent monomeric at low concentrations [5]: 100%

Continued, values first:

- percent monomeric at low concentrations [1]: 100%
Molecule: 2F8-HG-L236V (antibody)

- percent monomeric at low concentrations [2]: 100%
Molecule: 2F8-HG-Y275A (antibody)

— patent publication US20210155699A1
